In FireProtDB (doi:10.1021/bi00416a052):

B1: Ribonuclease HI, P0A7Y4 (parent)
chain: MLKQVEIFTDGSCLGNPGPGGYGAILRYRGREKTFSAGYTRTTNNRMELMAAIVALEALKEHCEVILSTDSQYVRQGITQWIHNWKKRGWKTADKKPVKNVDLWQRLDAALGQHQIKWEWVKGHAGHPENERCDELARAAAMNPTLEDTGYQVEV

Variants of: B1
Settings: Escherichia coli (strain K12), Thermal, CD, NaCl 0.1 M, reversible: yes, structure 2RN2, whole UniProt chain shown
[1] = pH 3, 49.8 °C, glycine-HCl 10 mM
[2] = pH 5.5, 52 °C, Sodium acetate 20 mM

| Variant | ddG of mutation (higher = less stable) [1] [kcal/mol] | Tm (pH 3, glycine-HCl 10 mM) [°C] | change of melting temperature, mutant - wild type (higher = more stable) (pH 3, glycine-HCl 10 mM) [°C] | ddG of mutation (higher = less stable) [2] [kcal/mol] | Tm (pH 5.5, Sodium acetate 20 mM) [°C] | change of melting temperature, mutant - wild type (higher = more stable) (pH 5.5, Sodium acetate 20 mM) [°C] |
| --- | --- | --- | --- | --- | --- | --- |
| V74A | 2.2 | 42.2 | -7.6 | 3.4 | 39.3 | -12.7 |
| V74I | -0.7 | 52.2 | 2.4 | -0.6 | 54.1 | 2.1 |
| V74L | -1.1 | 53.5 | 3.7 | -0.9 | 55.3 | 3.3 |
